Test results reported in article PMC5748111.

Molecular target: CaMKII (human CaMKIIδ, form used for the solution kinetics not stated) (human) (UniProt Q13557)
Chain of UniProt Q13557 (Q13557 1-478, stated change not applied): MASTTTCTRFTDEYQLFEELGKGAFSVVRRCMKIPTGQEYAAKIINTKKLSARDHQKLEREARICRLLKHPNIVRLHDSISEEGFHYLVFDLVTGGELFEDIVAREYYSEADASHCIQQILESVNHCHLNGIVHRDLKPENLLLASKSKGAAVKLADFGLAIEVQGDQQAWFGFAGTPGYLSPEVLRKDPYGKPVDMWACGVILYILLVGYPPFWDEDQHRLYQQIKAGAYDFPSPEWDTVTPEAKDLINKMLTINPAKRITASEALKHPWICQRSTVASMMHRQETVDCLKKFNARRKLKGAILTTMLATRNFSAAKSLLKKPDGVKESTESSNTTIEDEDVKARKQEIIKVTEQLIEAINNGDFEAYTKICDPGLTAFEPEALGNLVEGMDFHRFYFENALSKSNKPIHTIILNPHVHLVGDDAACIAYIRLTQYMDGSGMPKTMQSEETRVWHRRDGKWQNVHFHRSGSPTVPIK

Binder	Km of peptide phosphorylation, standard solution kinetics
RNKLRRQHSYDTFVD [GluN2B_(S1303) peptide]	4.6 µM
PLARTLSVAGLPGKK [Syntide peptide]	43.5 µM
PGVRLLQDSVDFSLA [VimentinS83 peptide]	> 1000 µM
GFCLIPQQSINEAIR [GluA1_(S849) peptide]	> 1000 µM
